Read-outs that look alike come from different tables or passages of the source. Numbered stars: 1 amine (or outer) side, 2 acyl side, 3 side chain; on linkers, the order of the positions; unused ones are H or OH. Bridge positions count the residues as written; N and C are the ends. Square brackets hold non-standard residues; d marks the D form. Ends that are not written are not given here. KCOpipzaa = N6-(4-(carboxymethyl)piperazine-1-carbonyl)-L-lysine, O=C(NCCCC[C@H](N[*:1])C(=O)[*:2])N1CCN(CC(=O)[*:3])CC1; Bph3C = (S)-2-amino-3-(3'-chloro-[1,1'-biphenyl]-4-yl)propanoic acid, O=C([C@H](Cc1ccc(-c2cccc(Cl)c2)cc1)N[*:1])[*:2]; F44thp = (S)-2-amino-3-[4-(tetrahydro-2H-pyran-4-yl)phenyl]propanoic acid, O=C([C@H](Cc1ccc(C2CCOCC2)cc1)N[*:1])[*:2]; 3Pal(6-Ph) = N[C@@H](Cc1ccc(-c2ccccc2)nc1)C(=O)O; Phe(4-COOH) = N[C@@H](Cc1ccc(C(=O)O)cc1)C(=O)O; NMePhe(3-Cl) = CN[C@@H](Cc1cccc(Cl)c1)C(=O)O; NMePhe(4-Me) = CN[C@@H](Cc1ccc(C)cc1)C(=O)O; Bip = N[C@@H](Cc1ccc(-c2ccccc2)cc1)C(=O)O; Phe(4-F) = N[C@@H](Cc1ccc(F)cc1)C(=O)O; Ala(4-THP) = N[C@@H](CC1CCOCC1)C(=O)O; cisHyp = O=C(O)[C@@H]1C[C@H](O)CN1; Hyp = O=C(O)[C@@H]1C[C@@H](O)CN1; NMeF = CN[C@@H](Cc1ccccc1)C(=O)O; 4Pal = N[C@@H](Cc1ccncc1)C(=O)O; Aad = N[C@@H](CCCC(=O)O)C(=O)O; Cha = N[C@@H](CC1CCCCC1)C(=O)O; Gly(cPr) = N[C@H](C(=O)O)C1CC1; Cba = N[C@@H](CC1CCC1)C(=O)O; Abu = CC[C@H](N)C(=O)O; βAla = NCCC(=O)O
Key:
[1] = molecular target: T1, BMP4 (Homo sapiens, UniProt P12644); assay: BMP4 signal transduction inhibitory activity: SMAD1 phosphorylation by BMP4 stimulus, AlphaLISA SureFire, A549 cells; assay type: cell-based
T1 sequence (P12644 293-408): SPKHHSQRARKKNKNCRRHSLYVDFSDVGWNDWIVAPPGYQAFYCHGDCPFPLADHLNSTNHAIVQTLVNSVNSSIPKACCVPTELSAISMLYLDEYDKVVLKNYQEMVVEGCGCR

[2] = molecular target: T2, BMP7 (Homo sapiens, UniProt P18075); assay: BMP7 signal transduction inhibitory activity: SMAD1 phosphorylation by BMP7 stimulus, A549 cells; assay type: cell-based
T2 sequence (P18075 293-431): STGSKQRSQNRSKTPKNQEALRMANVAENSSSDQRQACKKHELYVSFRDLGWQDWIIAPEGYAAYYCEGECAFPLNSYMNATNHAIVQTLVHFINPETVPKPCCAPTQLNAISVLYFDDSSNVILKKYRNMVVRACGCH
In short: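 SMAD1 phosphorylation readout in A549 cells stimulated with BMP7 (10 nM). Peptides were tested at three levels (e.g. 1/10/100, 10/100/1,000, 100/300/1,000, 10/30/90 nM) or at eight points, 1/3 steps, from 100 or 1,000 nM. Recombinant Noggin served as positive control at matching concentrations.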

[3] = molecular target: T3, BMP4 (UniProt P12644 293-408); assay: cell-based or functional assay
T3 sequence (looked up): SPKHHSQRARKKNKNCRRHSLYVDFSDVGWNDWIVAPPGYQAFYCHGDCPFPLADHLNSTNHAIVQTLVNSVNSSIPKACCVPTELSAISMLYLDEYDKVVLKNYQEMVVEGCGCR

[4] = molecular target: T4, BMP7 (UniProt P18075 293-431); assay: cell-based or functional assay
T4 sequence (looked up): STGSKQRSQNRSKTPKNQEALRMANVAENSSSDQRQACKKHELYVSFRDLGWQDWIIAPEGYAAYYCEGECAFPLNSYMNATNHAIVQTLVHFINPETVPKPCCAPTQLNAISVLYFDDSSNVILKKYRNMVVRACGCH

[5] = molecular target: T4, BMP7; assay: cell-based or functional assay; remark: listed apart in the source
[6] = molecular target: T5, BMP5 (UniProt P22003 317-454, limits assumed); assay: cell-based or functional assay
T5 sequence (looked up): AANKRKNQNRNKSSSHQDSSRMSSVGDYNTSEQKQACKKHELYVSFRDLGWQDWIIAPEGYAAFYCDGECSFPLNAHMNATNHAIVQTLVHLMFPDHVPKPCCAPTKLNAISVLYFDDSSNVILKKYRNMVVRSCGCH

[7] = molecular target: T6, BMP6 (UniProt P22004 382-513, limits assumed); assay: cell-based or functional assay
T6 sequence (looked up): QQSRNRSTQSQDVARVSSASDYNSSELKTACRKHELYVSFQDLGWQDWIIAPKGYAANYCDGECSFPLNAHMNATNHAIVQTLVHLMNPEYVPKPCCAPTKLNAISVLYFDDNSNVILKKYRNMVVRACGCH

[8] = BMP4 0.2 nM stimulus, peptide conc. in assay 0.2, 2, 20 nM
[9] = BMP7 10 nM stimulus, peptide conc. in assay 1, 10, 100 nM
[10] = SMAD1 phosphorylation, BMP4 0.2 nM, peptide conc. in assay 0.2, 2, 20 nM
[11] = SMAD1 phosphorylation, BMP7 10 nM, peptide conc. in assay 1, 10, 100 nM
[12] = BMP4 0.2 nM stimulus, peptide conc. in assay 2, 20, 200 nM
[13] = BMP7 10 nM stimulus, peptide conc. in assay 10, 30, 90 nM
[14] = BMP4 0.2 nM stimulus, peptide conc. in assay 0.02, 0.2, 2 nM, class symbols

421 ([Phe(4-F)]G[NMeF]G[3Pal(6-Ph)]GDE[Cha][Aad][NMePhe(4-Me)]L[Abu]C[βAla][dE]; also: cyclic peptide, ring closure not given here) [compound 421]
aLISA BMP4 (0.2 nM) % inh [1, 8]: ND (the inhibitory activity was less than 30% at the maximum concentration evaluated) | aLISA BMP7 (10 nM) % inh [2, 9]: D (showed less than 30% of inhibitory activity in 10 nM-addition zone and showed 30% or more of inhibitory activity in 100 nM-addition zone)

414 (FG[NMeF]G[3Pal(6-Ph)]GDE[Cha][Aad][NMeF]L[cisHyp]C-NH2; not fully specified) [compound 414]
aLISA BMP4 (0.2 nM) % inh [1, 8]: ND (the inhibitory activity was less than 30% at the maximum concentration evaluated) | aLISA BMP7 (10 nM) % inh [2, 9]: D (showed less than 30% of inhibitory activity in 10 nM-addition zone and showed 30% or more of inhibitory activity in 100 nM-addition zone)

329 (FG[NMeF]G[F44thp]GDD[Cha]A[NMeF]LHCG-NH2; not fully specified (N-terminus, bridges)) [compound 329]
aLISA BMP4 (0.2 nM) % inh [1, 10]: ND (the inhibitory activity was less than 30% at the maximum concentration evaluated) | aLISA BMP7 (10 nM) % inh [2, 11]: D (showed less than 30% of inhibitory activity in 10 nM-addition zone and showed 30% or more of inhibitory activity in 100 nM-addition zone)

370 (FG[NMeF]G[3Pal(6-Ph)]GDE[Cha]Q[NMeF]L[Phe(4-COOH)]CG-NH2; not fully specified (N-terminus, bridges)) [compound 370]
aLISA BMP4 (0.2 nM) % inh [1, 10]: ND (the inhibitory activity was less than 30% at the maximum concentration evaluated) | aLISA BMP7 (10 nM) % inh [2, 11]: D (showed less than 30% of inhibitory activity in 10 nM-addition zone and showed 30% or more of inhibitory activity in 100 nM-addition zone)

388 (FG[NMeF]G[Bip]GDD[Cha]A[NMePhe(3-Cl)]LHCG-NH2; not fully specified) [compound 388]
aLISA BMP4 (0.2 nM) % inh [1, 12]: B (showed less than 30% of inhibitory activity in 20 nM-addition zone and showed 30% or more of inhibitory activity in 200 nM-addition zone) | aLISA BMP7 (10 nM) % inh [2, 13]: E (showed 30% or more of inhibitory activity in 10 nM-addition zone)

120 ({CH2CO}-E[KCOpipzaa]VYV[KCOpipzaa]R[3Pal(6-Ph)]SYP[Bip]Y[Phe(4-COOH)][Phe(4-COOH)]SCG-NH2; thioether N-17; not fully specified) [compound 120]
aLISA BMP4 ([1]; inhibition of SMAD1 phosphorylation by BMP4 stimulus, A549 cells, peptides of Synthesis 2, classes A-C, ND): A (showed an inhibitory activity of 50% or more in a zone to which the peptide was added to in an amount of 0.2 nM) | aLISA BMP7 ([2]; inhibition of SMAD1 phosphorylation by BMP7 stimulus, A549 cells, peptides of Synthesis 2, classes A-D, ND): ND (the inhibitory activity was less than 30% at the maximum concentration evaluated)

348 (FG[NMeF]G[Bip]GDD[Cha]A[NMeF]LACG-NH2; not fully specified (N-terminus, bridges)) [compound 348]
aLISA BMP4 (0.2 nM) % inh [1, 10]: A (showed less than 30% of inhibitory activity in 2 nM-peptide-addition zone and showed 30% or more of inhibitory activity in 20 nM-addition zone) | aLISA BMP7 (10 nM) % inh [2, 11]: D (showed less than 30% of inhibitory activity in 10 nM-addition zone and showed 30% or more of inhibitory activity in 100 nM-addition zone)

314 (ERV[Phe(4-COOH)][Cba][KCOpipzaa]R[3Pal(6-Ph)][KCOpipzaa]Y[Hyp][Bph3C]Y[Phe(4-COOH)][Phe(4-COOH)]SCG-NH2; not fully specified) [compound 314]
aLIZA BMP4 (0.2 nM) % inh ([1]; BMP4 0.2 nM, peptide 0.02, 0.2, 2 nM, Table 6): B (showed less than 30% of inhibitory activity in 0.02 nM-addition zone and showed 30% or more of inhibitory activity in 0.2 nM-addition zone) | aLIZA BMP7 (10 nM) % inh ([2]; BMP7 10 nM, peptide 10, 100, 1000 nM, Table 6): E (showed less than 30% of inhibitory activity in 100 nM-addition zone and showed 30% or more of inhibitory activity in 1,000 nM-addition zone)

281 (ERV[Phe(4-COOH)]VDR[3Pal(6-Ph)][KCOpipzaa]YV[Bip][4Pal][Phe(4-COOH)][Phe(4-COOH)]SC[βAla]) [compound 281]
aLIZA BMP4 (0.2 nM) % inh [1, 14]: C (showed less than 30% of inhibitory activity in 0.2 nM-addition zone and showed 30% or more of inhibitory activity in 2 nM-addition zone) | aLIZA BMP7 (10 nM) % inh ([2]; BMP7 10 nM stimulus, peptide conc. in assay 100, 300, 1000 nM, class symbols): ND (the inhibitory activity was less than 30% at the maximum concentration evaluated)

404 (FG[NMeF]G[Bip]GDE[Cha]Q[NMeF]L[Phe(4-COOH)]C-NH2; not fully specified) [compound 404]
aLISA BMP4 (0.2 nM) % inh [1, 8]: ND (the inhibitory activity was less than 30% at the maximum concentration evaluated) | aLISA BMP7 (10 nM) % inh [2, 9]: C (showed less than 30% of inhibitory activity in a zone to which the peptide was added in an amount of 1 nM and showed 30% or more of inhibitory activity in 10 nM-addition zone)

391 (FG[NMeF]G[Bip]GDD[Cha]AYLHCG-NH2; not fully specified (residue 11)) [compound 391]
aLISA BMP4 (0.2 nM) % inh [1, 12]: A (showed less than 30% of inhibitory activity in 2 nM-peptide-addition zone and showed 30% or more of inhibitory activity in 20 nM-addition zone) | aLISA BMP7 (10 nM) % inh [2, 13]: F (showed less than 30% of inhibitory activity in 10 nM-addition zone and showed 30% or more of inhibitory activity in 30 nM-addition zone)

272 (ERV[Phe(4-COOH)][Gly(cPr)]DR[3Pal(6-Ph)]SYV[Bip][4Pal][Phe(4-COOH)][Phe(4-COOH)]SCG-NH2; not fully specified (N-terminus, bridges)) [compound 272]
aLIZA BMP4 (0.2 nM) % inh [1, 14]: C (showed less than 30% of inhibitory activity in 0.2 nM-addition zone and showed 30% or more of inhibitory activity in 2 nM-addition zone) | aLIZA BMP7 (10 nM) % inh ([2]; BMP7 10 nM stimulus, peptide conc. in assay 10, 100, 1000 nM, class symbols): ND (the inhibitory activity was less than 30% at the maximum concentration evaluated)

{CH2CO}-ERV[Phe(4-COOH)][Ala(4-THP)][KCOpipzaa]R[Bip]PYP[Bip]Y[Phe(4-COOH)][Phe(4-COOH)]SC[βAla][dE]-OH (thioether N-17 (inferred)) [BMP4 signal transduction inhibition peptide No. 181]
IC50 (nM), SMAD1 phosphorylation in A549 cells [3]: 0.052 nM | IC50 (nM), SMAD1 phosphorylation in A549 cells [4]: 1.6 nM

B1: Noggin: recombinant Human Noggin Protein (R&D), positive control; secreted protein that has BMP inhibitory activity (protein)
chain: QHYLHIRPAPSDNLPLVDLIEHPDPIFDPKEKDLNETLLRSLLGGHYDPGFMATSPPEDRPGGGGGAAGGAEDLAELDQLLRQRPSGAMPSEIKGLEFSEGLAQGKKQRLSKKLRRKLQMWLWSQTFCPVLYAWNDLGSRFWPRYVKVGSCFSKRSCSVPEGMVCKPSKSVHLTVLRWRCQRRGGQRCGWIPIQYPIISECKCSC
IC50 ([1]; Table 2-2, 277 from 20 nM (1/3), 417 from 300 nM (1/4), ND = IC50 was not calculated): 0.13 nM | IC50 ([1]; Table 2, eight concentrations, ratio 1/3 from 2 nM, A549 cells): 0.08 nM | IC50 ([2]; Table 2-2, 277 from 1,000 nM (1/3), 417 from 300 nM (1/4)): 5.74 nM | IC50 ([2]; Table 2, eight concentrations, ratio 1/3 from 100 nM, ND = IC50 was not calculated in the evaluation systems): 2.7 nM

{CH2CO}-ERVYVDR[3Pal(6-Ph)]SYV[Bip]Y[Phe(4-COOH)][Phe(4-COOH)]SCG-NH2 (thioether N-17 (inferred)) [BMP4 signal transduction inhibition peptide No. 87 (SEQ ID NO: 87)]
IC50 (nM), SMAD1 phosphorylation in A549 cells [3]: 0.08 nM

{CH2CO}-[Phe(4-F)]G[NMeF]G[3Pal(6-Ph)]GDE[Cha][Aad][NMePhe(4-Me)]L[cisHyp]C[βAla][dE]-OH (thioether N-14 (inferred)) [BMP7 signal transduction inhibition peptide SEQ ID NO: 417 (Example 6)]
IC50 (nM), SMAD1 phosphorylation in A549 cells [5]: 15.6 nM | IC50, SMAD1 phosphorylation, BMP5 2 nM [6]: 19.3 nM | IC50, SMAD1 phosphorylation, BMP6 3 nM [7]: 28.7 nM
